Assay [1] has as its target human CD19 (human) (UniProt P15391). As to the kind of experiment: dSTORM, isotype control on NALM-6 cells (background), antibody at 10 µg/ml.
Assay [2] has the same target. As to the kind of experiment: dSTORM, isotype control on NALM-6 cells (background), antibody at 0.05 µg/ml.
Assay [3] shares this target. As to the kind of experiment: dSTORM, isotype control on NALM-6 cells (background), antibody at 5 × 10^-5 µg/ml.
Assay [4] has the same target. As to the kind of experiment: dSTORM, isotype control on NALM-6 cells (background), antibody at 2.5 µg/ml.
Assay [5] has the same target. As to the kind of experiment: dSTORM, isotype control on NALM-6 cells (background), antibody at 5 µg/ml.
The target is the same in assay [6]. As to the kind of experiment: dSTORM, isotype control on NALM-6 cells (background), antibody at 5 × 10^-4 µg/ml.
The target is the same in assay [7]. As to the kind of experiment: dSTORM, isotype control on NALM-6 cells (background), antibody at 5 × 10^-3 µg/ml.
Assay [8] has the same target. As to the kind of experiment: dSTORM, isotype control on NALM-6 cells (background), antibody at 0.5 µg/ml.
The target is the same in assay [9]. As to the kind of experiment: dSTORM, antibody titration on NALM-6 cells, antibody at 10 µg/ml.
Assay [10] shares this target. As to the kind of experiment: dSTORM, antibody titration on NALM-6 cells, antibody at 5 µg/ml.
The target is the same in assay [11]. As to the kind of experiment: dSTORM, antibody titration on NALM-6 cells, antibody at 0.05 µg/ml.
For assay [12] the target is unchanged. As to the kind of experiment: dSTORM, antibody titration on NALM-6 cells, antibody at 5 × 10^-5 µg/ml.
Assay [13] has the same target. As to the kind of experiment: dSTORM, antibody titration on NALM-6 cells, antibody at 5 × 10^-4 µg/ml.
The target is the same in assay [14]. As to the kind of experiment: dSTORM, antibody titration on NALM-6 cells, antibody at 0.5 µg/ml.
For assay [15] the target is unchanged. As to the kind of experiment: dSTORM on NALM-6 cells, antibody at 5×10^-5 µg/ml.
Assay [16] shares this target. As to the kind of experiment: dSTORM on NALM-6 cells, antibody at c≥2.5 µg/ml.
The target is the same in assay [17]. As to the kind of experiment: dSTORM, antibody titration on NALM-6 cells, antibody at 2.5 µg/ml.
Assay [18] has the same target. As to the kind of experiment: dSTORM, antibody titration on NALM-6 cells, antibody at 5 × 10^-3 µg/ml.

Drawing on US20200209240A1, this text covers Molecules per cell (molecules per cell), CD19 molecules/µm^2 and CD19 molecules/µm^2 under saturating conditions (CD19 molecules/µm^2) for 2 substances.

UniProt P15391, sequence (P15391 20-556): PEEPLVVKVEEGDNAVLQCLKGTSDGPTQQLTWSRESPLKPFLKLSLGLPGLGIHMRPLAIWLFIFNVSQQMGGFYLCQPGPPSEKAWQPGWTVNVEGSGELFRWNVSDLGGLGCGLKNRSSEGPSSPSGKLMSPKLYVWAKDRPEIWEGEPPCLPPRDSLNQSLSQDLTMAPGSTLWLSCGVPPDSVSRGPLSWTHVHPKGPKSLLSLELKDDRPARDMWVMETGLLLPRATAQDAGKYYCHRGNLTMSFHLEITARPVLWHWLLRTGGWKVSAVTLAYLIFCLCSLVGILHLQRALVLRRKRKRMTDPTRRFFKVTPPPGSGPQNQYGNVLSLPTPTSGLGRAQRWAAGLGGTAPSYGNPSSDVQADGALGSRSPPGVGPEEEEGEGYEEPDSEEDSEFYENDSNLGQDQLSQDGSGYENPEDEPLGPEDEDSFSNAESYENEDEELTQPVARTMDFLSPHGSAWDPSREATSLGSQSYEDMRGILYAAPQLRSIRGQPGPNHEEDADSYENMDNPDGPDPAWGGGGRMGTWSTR

As to “AF647 isotype control antibody (BioLegend)”, the Molecules per cell (molecules per cell) was 72 in the assay with human CD19 (human) [1]; 7.1 in the assay with human CD19 (human) [2]; 0 with human CD19 (human) [3]; 50 with human CD19 (human) [4]; 85 with human CD19 (human) [5]; 0.8 with human CD19 (human) [6]. The Molecules per cell (molecules per cell) is 1.3 in the assay with human CD19 (human) [7] and 44 with human CD19 (human) [8].

Take “anti-CD19 antibody, clone HIB19, Alexa Fluor 647 conjugate (BioLegend)”: the Molecules per cell (molecules per cell) with human CD19 (human) [9] came out at 1880; with human CD19 (human) [10], 1860; with human CD19 (human) [11] it was 182; with human CD19 (human) [12], 3.1; with human CD19 (human) [13], 12; in the assay with human CD19 (human) [14], 710. Further, the Molecules per cell (molecules per cell) with human CD19 (human) [17] worked out at 1780; with human CD19 (human) [18], 67. In the assay with human CD19 (human) [15], this substance showed a CD19 molecules/µm^2 at the detection limit (CD19 molecules/µm^2) of 0.006. For the same substance, the CD19 molecules/µm^2 under saturating conditions (CD19 molecules/µm^2) with human CD19 (human) [16] worked out at 3.4.
